The target in this test is CoV OC43 spike glycoprotein (S) (human coronavirus OC43) (UniProt P36334). The test is described as follows: […], running buffer TBS, […].

A word on the stoichiometry N: it is a count of units in the complex or per binding partner. For “CoV OC43 spike glycoprotein (S) (from UniProt P36334 14-1263) (natural protein)”, the stoichiometry N was determined as 3.
